In patent US12578343B2, “Selective ACKR3 modulators and uses thereof” (Luxembourg Institute of Health (LIH), priority 2019, dated 2026):

What was measured:
[1] = molecular target: T1, native or CXCR4-expressing U87 cells (Homo sapiens, UniProt P61073); test: Binding of fluorescently labelled LIH383 to native or CXCR4-expressing cells
T1 construct: expressed in transfected cells; pcDNA3.1 transient for DMR

[2] = molecular target: T2, CXCR4 (Homo sapiens, UniProt P61073); test: Dynamic mass redistribution (DMR), U87 cells expressing CXCR4; format: cell-based; conditions: 200 nM
T2 construct: expressed in transfected cells; pcDNA3.1 transient for DMR
Experimental: 1.5. Label-Free Dynamic Mass Redistribution (DMR) Assay
Dynamic mass redistribution (DMR) experiments were conducted using the Corning Epic (Corning) biosensor system as previously described in Schröder, R. et al. Deconvolution of complex G protein-coupled receptor signaling in live cells using dynamic mass redistribution measurements. Nat Biotechnol 28, 943-949 (2010) and Schröder, R. et al. Applying label-free dynamic mass redistribution technology to frame signaling of G protein-coupled receptors noninvasively in living cells. Nat Protoc. 6(11): 1748-1760 (2011). In brief, 6×10^5 U87 cells were seeded in 6-cm dishes. 24 hours later cells were transfected with pcDNA3.1-based expression plasmids coding for the respective chemokine (ACKR3, CXCR4) or opioid (KOR, NOP) receptors using polyethylenimine (PEI) reagent (Polysciences). 24 hours after transfection 1×10^4 cells per well were transferred to a 384-well Epic biosensor plate and incubated (37° C., 5% CO2) overnight. Cells were then washed twice with Hanks' balanced salt solution (HBSS) (Life Technologies) containing 20 mM HEPES (Life Technologies) and subsequently incubated in the DMR-reader for 1.5 hours to achieve temperature equilibration (37° C.). […] Alterations of ligand-induced DMR were monitored for at least 3000 seconds. Raw data were processed and analysed using GraphPad Prism 7.05 (GraphPad Inc).

[3] = molecular target: T2, CXCR4; test: HTRF ERK1/2 phosphorylation, U87 cells stably expressing CXCR4; format: cell-based; conditions: between 2 and 120 minutes after stimulation
Experimental: 1.6 Homogeneous Time-Resolved Fluorescence (HTRF)-Based Extracellular Signal Regulated Kinases 1 and 2 (ERK1/2) Phosphorylation Assays
Homogeneous Time-Resolved Fluorescence (HTRF)-based phospho-ERK1/2 and total-ERK1/2 assays were performed using phospho-ERK1/2 (Thr202/Tyr204) and total-ERK1/2 cellular kits (Cisbio International). In short, for quantification of total and phosphorylated ERK1/2 protein, U87 cells stably expressing (or not) ACKR3 or CXCR4 were seeded at a density of 3.5×10^4 cells per well into 96-well poly-D-lysine (PDL)-coated microtiter plates (Sigma-Aldrich). After overnight incubation, cells were starved for 4 hours at 37° C. in serum-free medium. Cells were then stimulated for the indicated time intervals with chemokine or opioid ligands, respectively, before termination by replacement of supernatants with lysis buffer followed by 1.5 hours incubation on an orbital shaker. […] D2-labeled anti-total-ERK1/2 and Eu^3+-Cryptate-labelled anti-total-ERK1/2 antibodies were added for quantification of total-ERK1/2 abundance. Following an incubation time of at least 2 hours (phospho-ERK1/2) or 24 hours (total-ERK1/2), time-resolved FRET signals were measured using the Mithras LB 940 multimode reader (Berthold Technologies) equipped with 320 nm excitation filter and 620 nm (donor) and 665 nm (acceptor) emission filters.

[4] = molecular target: KOR (Homo sapiens, UniProt P41145); test: Receptor cell surface level of KOR by HiBiT technology; format: cell-based; set-up: expressed in transfected cells; host or cells: U87 cells, transient, PEI; conditions: bafilomycin A1 1.5 μM, 180-minute stimulation
Experimental: 1.14 Monitoring of Opioid Peptide-Induced Changes in Receptor Cell Surface Levels
Determination of receptor surface expression level by NanoLuc complementation assay was performed using the Nano-Glo HiBiT extracellular detection system (Promega) according to manufacturer's protocol. […] Cells were then incubated with HiBiT extracellular reagent, consisting of Nanoluciferase extracellular substrate and LgBiT protein in HiBiT buffer. Light emission from complementation of LgBiT protein with remaining surface receptor-fused HiBiT was determined on a Mithras LB940 plate reader (Berthold Technologies). Signal was normalised to the measurement recorded at t=1 min. Noteworthy the impact of nociceptin and derivatives could not be determined in this assay due to significant LgBiT protein cross-complementation by nociceptin. Where indicated, cells were treated with bafilomycin A1 (1.5 μM in 0.15% DMSO) (Santa Cruz Biotechnology) or 0.15% DMSO for 45 minutes prior ligand stimulation and during ligand stimulation (180 minutes).

[5] = tested on: ACKR3; test: B-arrestin-1 | ACKR3 | EC50 (nM)
Excerpt: Table printed on a drawing sheet, FIG. 1 (continued) H
Head of the field: B-arrestin-1 | ACKR3 | EC50 (nM)
The patent's description of the figure: FIG. 1 Opioid peptide library screening on ACKR3, hit confirmation and comparison with classical opioid receptors. (A) The ability of 58 compounds, including natural opioid peptides from the four opioid families, variants thereof and small molecule opioid receptor modulators, to induce β-arrestin-2 recruitment to ACKR3, CXCR4 and CXCR3 in U87 cells at a concentration of 5 μM. Positive control chemokines were used at a concentration of 300 nM. Results are expressed as fold change over vehicle-treated cells and presented as mean±S.D of two replicates (B-F) Comparison of potency and efficacy of ACKR3-activating peptides in inducing β-arrestin-1 recruitment to the opioid receptors MOR (B), DOR (C), KOR (D), NOP (E) and ACKR3 (F) in U87 cells. Results are expressed as percentage of indicated agonist response. […] Results from B—H are presented as mean±S.E.M (n ? 3).
Where the first naming reader finds the target: head: B-arrestin-1 | ACKR3 | EC50 (nM)

[6] = molecular target: T3, ACKR3 (Homo sapiens, UniProt P25106); test: Opioid peptide library screening: β-arrestin-2 recruitment to ACKR3 in U87 cells; format: cell-based; set-up: expressed in transfected cells; host or cells: U87 cells, transient co-transfection of pNBe vectors; conditions: 5 μM
Experimental: (§1) In brief, 1.2×10^6 U87 cells were plated in 10 cm-culture dishes and 48 hours later co-transfected with pNBe vectors encoding GPCRs C-terminally tagged to SmBiT and human β-arrestin-1 or -2 or mini G proteins (mG, engineered GTPase domains of Gα subunits,) N-terminally fused to LgBiT. 48 hours post-transfection cells were harvested, incubated 25 minutes at 37° C. with Nano-Glo Live Cell substrate diluted 200-fold and distributed into white 96-well plates (5×10^4 cells per well). Ligand-induced, β-arrestin and mG recruitment to GPCRs was evaluated with a Mithras LB940 luminometer (Berthold Technologies) for 20 minutes. For concentration-response curves, the signal recorded with a saturating concentration of full agonist for each receptor was set as 100%.
Target sequence in this assay (P25106 whole entry, the tested form may be a part): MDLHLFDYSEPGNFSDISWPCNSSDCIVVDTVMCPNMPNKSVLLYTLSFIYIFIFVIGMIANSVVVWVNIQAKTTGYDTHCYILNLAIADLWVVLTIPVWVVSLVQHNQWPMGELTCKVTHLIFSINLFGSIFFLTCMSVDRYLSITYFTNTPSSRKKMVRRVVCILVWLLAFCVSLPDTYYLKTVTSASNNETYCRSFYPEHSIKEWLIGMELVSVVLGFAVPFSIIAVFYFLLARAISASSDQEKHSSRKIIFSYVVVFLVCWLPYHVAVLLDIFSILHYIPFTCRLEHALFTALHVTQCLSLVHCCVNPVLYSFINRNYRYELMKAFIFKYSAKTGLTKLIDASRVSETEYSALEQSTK
Target sequence in this assay (P32121 whole entry partner, the tested form may be a part): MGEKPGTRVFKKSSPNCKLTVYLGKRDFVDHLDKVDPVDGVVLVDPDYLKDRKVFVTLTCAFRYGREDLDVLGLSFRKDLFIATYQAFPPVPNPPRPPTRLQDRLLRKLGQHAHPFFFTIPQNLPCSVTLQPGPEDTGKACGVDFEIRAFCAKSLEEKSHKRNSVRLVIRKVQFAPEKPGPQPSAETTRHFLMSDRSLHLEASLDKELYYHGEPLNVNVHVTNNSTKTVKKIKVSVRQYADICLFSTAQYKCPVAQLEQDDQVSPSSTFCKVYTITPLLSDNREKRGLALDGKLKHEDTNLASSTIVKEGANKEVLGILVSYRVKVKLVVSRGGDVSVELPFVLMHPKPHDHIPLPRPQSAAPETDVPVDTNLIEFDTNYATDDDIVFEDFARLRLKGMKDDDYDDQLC

[7] = tested on: CXCR3; test: β-arrestin recruitment to CXCR3 (NanoBiT); format: cell-based, human; conditions: saturating concentration (3 μM)
Experimental: as §1

[8] = molecular target: T4, CX3CR1 (Homo sapiens, UniProt P49238); test: β-arrestin recruitment to CX3CR1 (NanoBiT); format: cell-based; conditions: saturating concentration (3 μM)
T4 construct: expressed in transfected cells; host or cells: U87 cells, transient co-transfection of pNBe vectors
T4 sequence (P49238 1-355): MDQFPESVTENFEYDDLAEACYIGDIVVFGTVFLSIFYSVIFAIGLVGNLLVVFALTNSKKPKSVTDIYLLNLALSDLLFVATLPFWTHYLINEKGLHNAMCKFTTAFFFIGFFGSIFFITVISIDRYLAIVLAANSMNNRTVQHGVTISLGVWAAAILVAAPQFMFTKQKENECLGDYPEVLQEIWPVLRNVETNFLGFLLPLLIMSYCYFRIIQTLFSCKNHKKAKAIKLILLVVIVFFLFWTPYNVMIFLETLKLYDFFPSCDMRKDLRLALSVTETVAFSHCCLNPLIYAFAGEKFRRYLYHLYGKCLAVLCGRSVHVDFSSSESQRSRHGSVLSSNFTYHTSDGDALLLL
Experimental: as §1

[9] = molecular target: T5, CCR3 (Homo sapiens, UniProt P51677); test: β-arrestin recruitment to CCR3 (NanoBiT); format: cell-based; conditions: saturating concentration (3 μM)
T5 construct: expressed in transfected cells; host or cells: U87 cells, transient co-transfection of pNBe vectors
T5 sequence (P51677 1-355): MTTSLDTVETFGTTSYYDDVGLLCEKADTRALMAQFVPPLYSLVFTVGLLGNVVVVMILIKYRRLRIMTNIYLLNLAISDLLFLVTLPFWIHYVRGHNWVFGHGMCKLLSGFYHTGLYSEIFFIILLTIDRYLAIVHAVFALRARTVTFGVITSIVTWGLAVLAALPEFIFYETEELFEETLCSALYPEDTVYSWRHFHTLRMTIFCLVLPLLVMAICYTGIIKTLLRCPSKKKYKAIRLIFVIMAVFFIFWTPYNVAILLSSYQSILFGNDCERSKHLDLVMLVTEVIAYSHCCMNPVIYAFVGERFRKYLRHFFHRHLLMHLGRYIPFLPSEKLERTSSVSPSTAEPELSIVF
Experimental: as §1

[10] = molecular target: T3, ACKR3; format: cell-based; set-up: expressed in transfected cells; host or cells: U87 cells, transient co-transfection of pNBe vectors; conditions: U87 cells
Target sequence in this assay (P25106 whole entry, the tested form may be a part): as the sequence (P25106 whole entry, the tested form may be a part) above
Target sequence in this assay (P49407 whole entry partner, the tested form may be a part): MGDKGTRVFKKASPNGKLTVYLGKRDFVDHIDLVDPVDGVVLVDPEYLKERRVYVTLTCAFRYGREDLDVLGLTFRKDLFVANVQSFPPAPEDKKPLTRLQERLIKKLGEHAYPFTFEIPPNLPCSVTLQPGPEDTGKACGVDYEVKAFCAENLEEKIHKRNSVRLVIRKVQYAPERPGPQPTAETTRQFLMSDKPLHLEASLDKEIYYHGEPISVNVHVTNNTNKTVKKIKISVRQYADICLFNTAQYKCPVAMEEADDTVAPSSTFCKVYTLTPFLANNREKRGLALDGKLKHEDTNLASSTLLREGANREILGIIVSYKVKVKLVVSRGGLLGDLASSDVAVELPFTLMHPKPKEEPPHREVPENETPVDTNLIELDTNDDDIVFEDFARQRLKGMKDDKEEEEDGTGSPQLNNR

T2 sequence (P61073 whole entry): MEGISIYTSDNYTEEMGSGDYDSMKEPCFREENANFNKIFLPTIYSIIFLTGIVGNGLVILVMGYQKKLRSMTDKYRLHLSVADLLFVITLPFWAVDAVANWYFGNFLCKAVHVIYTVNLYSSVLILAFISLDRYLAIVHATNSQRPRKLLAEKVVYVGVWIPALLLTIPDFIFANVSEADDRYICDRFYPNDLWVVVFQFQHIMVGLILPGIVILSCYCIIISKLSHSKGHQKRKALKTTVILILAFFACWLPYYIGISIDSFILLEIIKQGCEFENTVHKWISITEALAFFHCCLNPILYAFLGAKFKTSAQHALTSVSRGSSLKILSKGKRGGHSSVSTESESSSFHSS
T1 sequence (P61073 whole entry): as above
Sequence of KOR (P41145 whole entry): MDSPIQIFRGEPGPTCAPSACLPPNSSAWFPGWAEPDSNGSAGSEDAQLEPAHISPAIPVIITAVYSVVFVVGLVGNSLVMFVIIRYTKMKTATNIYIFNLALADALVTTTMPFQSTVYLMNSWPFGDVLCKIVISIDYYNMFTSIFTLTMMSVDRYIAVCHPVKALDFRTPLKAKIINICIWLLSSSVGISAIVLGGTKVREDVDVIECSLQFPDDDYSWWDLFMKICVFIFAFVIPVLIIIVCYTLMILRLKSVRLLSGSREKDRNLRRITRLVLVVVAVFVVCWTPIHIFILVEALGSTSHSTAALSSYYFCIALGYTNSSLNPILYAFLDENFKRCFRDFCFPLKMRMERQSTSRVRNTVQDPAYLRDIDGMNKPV
Sequence of CXCR3 (P49682 5-368 limits assumed): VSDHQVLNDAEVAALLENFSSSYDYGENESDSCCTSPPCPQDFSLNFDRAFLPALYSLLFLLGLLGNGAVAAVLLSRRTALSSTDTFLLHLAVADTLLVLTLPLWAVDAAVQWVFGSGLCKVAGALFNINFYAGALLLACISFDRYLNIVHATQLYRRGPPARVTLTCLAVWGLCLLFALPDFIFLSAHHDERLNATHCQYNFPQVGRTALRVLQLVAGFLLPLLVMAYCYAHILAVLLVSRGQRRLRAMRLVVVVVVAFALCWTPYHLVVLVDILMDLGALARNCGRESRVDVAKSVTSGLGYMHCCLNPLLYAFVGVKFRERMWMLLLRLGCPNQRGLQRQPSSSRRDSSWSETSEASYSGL

## Cy-5-labelled LIH383: fluorescently labelled LIH383 (LIH383-Cy5)
[1]
  binding to native or CXCR4-expressing U87 cells: not to native or CXCR4-expressing U87 cells

## CXCL12: C—X—C motif chemokine 12, endogenous ACKR3 chemokine ligand
[2]
  DMR response of CXCR4-expressing U87 cells: strong DMR
[3]
  ERK phosphorylation, cells stably expressing CXCR4: strong increase in ERK phosphorylation

## CO/C1=C\C(C)=C\[C@@H](C)[C@@H](O)[C@@H](C)C/C(C)=C/C=C/[C@H](OC)[C@@H]([C@@H](C)[C@@H](O)[C@H](C)[C@@]2(O)C[C@@H](O)[C@H](C)[C@@H](C(C)C)O2)OC1=O [bafilomycin A1]
[4]
  surface levels of KOR following stimulation with opioid peptides: no effect on surface levels of KOR

## BAM22: proenkephalin-derived opioid peptide
[5]
  EC50: 23.5 nM

## BAM18: opioid peptide previously reported as ACKR3 ligand (YGGFMRRVGRPEWWMDYQ)
[6]
  ability to induce β-arrestin-2 recruitment to ACKR3 (library screening): capable of inducing β-arrestin-2 recruitment to ACKR3

## big dynorphin: the precursor of dynorphin A and B
[7]
  β-arrestin recruitment to CXCR3: faint induction of β-arrestin recruitment
[8]
  β-arrestin recruitment to CX3CR1: faint induction of β-arrestin recruitment
[9]
  β-arrestin recruitment to CCR3: faint induction of β-arrestin recruitment
[10]
  β-arrestin recruitment to ACKR3: agonist activity/potency in words: at low concentrations comparable to their activity on the classical opioid receptors
